{"source": "paper PMC11617999", "key": {"[1]": {"biological_target": "His-FakB2 (fatty acid binding protein FakB2, Staphylococcus aureus) (S. aureus)", "assay": "BLI; Octet RED96e; His-FakB2 (2 ug/mL) immobilised on Ni-NTA biosensor tips, blocked with 0.1 mg/mL BSA; untagged FakA 1.65-133.3 nM in solution, 5 min association, 10 min dissociation; 50 mM Tris HCl pH 7.4, 150 mM KCl, 1 mM TCEP, 5% glycerol, 10 mM MgCl2; 1:1 binding model (1 FakB2:1 FakA binding site)"}, "[2]": {"biological_target": "FakA H282A, H284A variant (Staphylococcus aureus) (S. aureus)", "assay": "mass photometry; kinetic mass photometry, initial reading (0 min) after dilution to 10 nM; room temperature; 50 mM Tris pH 7.4, 150 mM KCl, 1 mM TCEP, 10 uM ZnSO4; dimer to monomers"}, "[3]": {"biological_target": "FakA H282A, H284A variant (Staphylococcus aureus) (S. aureus)", "assay": "mass photometry; kinetic mass photometry, 20 min after dilution to 10 nM (equilibrium); room temperature; 50 mM Tris pH 7.4, 150 mM KCl, 1 mM TCEP, 10 uM ZnSO4; dimer to monomers"}, "[4]": {"biological_target": "Fatty acid kinase FakA, wild type (Staphylococcus aureus) (S. aureus)", "assay": "mass photometry; kinetic mass photometry, initial reading (0 min) after dilution to 10 nM; room temperature; 50 mM Tris pH 7.4, 150 mM KCl, 1 mM TCEP, 10 uM ZnSO4; dimer to monomers"}, "[5]": {"biological_target": "Fatty acid kinase FakA, wild type (Staphylococcus aureus) (S. aureus)", "assay": "mass photometry; kinetic mass photometry, 20 min after dilution to 10 nM (equilibrium); room temperature; 50 mM Tris pH 7.4, 150 mM KCl, 1 mM TCEP, 10 uM ZnSO4; dimer to monomers"}, "[6]": {"biological_target": "His-tagged FakB2 (Staphylococcus aureus) (S. aureus)", "assay": "BLI; additional studies as a1 but FakB loaded at a range of 2 to 20 ug/mL"}, "[7]": {"biological_target": "Fatty acid kinase FakA, wild type (Staphylococcus aureus) (S. aureus)", "assay": "SEC-SAXS; size-exclusion chromatography coupled with small-angle X-ray scattering of FakA in solution; AlphaFold dimer model refined with BilboMD, envelopes by DAMMIF and DENSS"}, "[8]": {"biological_target": "His-tagged FakB2 (Staphylococcus aureus) (S. aureus)", "assay": "BLI; His-FakB2 (2 ug/mL) immobilised on Ni-NTA biosensor tips, blocked with 0.1 mg/mL BSA; varying concentrations of untagged FakA, 5 min association, 10 min dissociation; 50 mM Tris HCl pH 7.4, 150 mM KCl, 1 mM TCEP, 5% glycerol, 10 mM MgCl2; Octet RED96e; fitted 1:1 and with a bivalent analyte model"}}, "note": "Where “and” joins values, the source holds several entries; their conditions need not be identical. Equal values may be shown once."}
{"substance": "FakA (fatty acid kinase, Staphylococcus aureus), untagged (enzyme)", "values": [{"measurement": "koff", "setting": "[1]", "value": 0.000686, "unit": "s⁻¹"}, {"measurement": "kon", "setting": "[1]", "value": 158000, "unit": "M⁻¹ s⁻¹"}]}
{"substance": "FakA H282A, H284A variant (Staphylococcus aureus) (enzyme)", "values": [{"measurement": "percent of protein in the dimer peak", "setting": "[2]", "value": 63, "unit": "%"}, {"measurement": "percent of protein in the dimer peak", "setting": "[3]", "value": 24, "unit": "%"}]}
{"substance": "Fatty acid kinase FakA, wild type (Staphylococcus aureus) (enzyme)", "values": [{"measurement": "percent of protein in the dimer peak", "setting": "[4]", "value": 77, "unit": "%"}, {"measurement": "percent of protein in the dimer peak", "setting": "[5]", "value": 57, "unit": "%"}, {"measurement": "Kd", "setting": "[6]", "value": "4.34 to 15 nM and 10.6 nM"}, {"measurement": "stoichiometry N", "setting": "[7]", "value": 2}, {"measurement": "Kd", "setting": "[8]", "value": 4.34, "unit": "nM"}]}
